From publication PMC7668070 (Proceedings of the National Academy of Sciences of the …, 2020) come the findings set out here.

For orientation: Kd means the concentration at which binding is half-saturated.

First the molecules themselves.
B1: K31F/N33D/H34A/E35Q/N49D/N51S/N53S/E57G/N64D ACE2(614), Aga2p-GFP construct Y354, displayed on yeast (designed binder)
chain: QSTIEEQAKTFLDFFDAQAEDLFYQSSLASWDYSTSITEGNVQNMNDAGDKWSAFLKEQSTLAQMYPLQEIQNLTVKLQLQALQQNGSSVLSEDKSKRLNTILNTMSTIYSTGKVCNPDNPQECLLLEPGLNEIMANSLDYNERLWAWESWRSEVGKQLRPLYEEYVVLKNEMARANHYEDYGDYWRGDYEVNGVDGYDYSRGQLIEDVEHTFEEIKPLYEHLHAYVRAKLMNAYPSYISPIGCLPAHLLGDMWGRFWTNLYSLTVPFGQKPNIDVTDAMVDQAWDAQRIFKEAEKFFVSVGLPNMTQGFWENSMLTDPGNVQKAVCHPTAWDLGKGDFRILMCTKVTMDDFLTAHHEMGHIQYDMAYAAQPFLLRNGANEGFHEAVGEIMSLSAATPKHLKSIGLLSPDFQEDNETEINFLLKQALTIVGTLPFTYMLEKWRWMVFKGEIPKDQWMKKWWEMKREIVGVVEPVPHDETYCDPASLFHVSNDYSFIRYYTRTLYQFQFQEALCQAAKHEGPLHKCDISNSTEAGQKLFNMLRLGKSEPWTLALENVVGAKNMNVRPLLNYFEPLFTWLKDQNKNSFVGWSTDWSPYA
B2: K31F/H34I/E35Q ACE2(614), Aga2p-GFP construct Y293, displayed on yeast (designed binder)
chain: QSTIEEQAKTFLDFFNIQAEDLFYQSSLASWNYNTNITEENVQNMNNAGDKWSAFLKEQSTLAQMYPLQEIQNLTVKLQLQALQQNGSSVLSEDKSKRLNTILNTMSTIYSTGKVCNPDNPQECLLLEPGLNEIMANSLDYNERLWAWESWRSEVGKQLRPLYEEYVVLKNEMARANHYEDYGDYWRGDYEVNGVDGYDYSRGQLIEDVEHTFEEIKPLYEHLHAYVRAKLMNAYPSYISPIGCLPAHLLGDMWGRFWTNLYSLTVPFGQKPNIDVTDAMVDQAWDAQRIFKEAEKFFVSVGLPNMTQGFWENSMLTDPGNVQKAVCHPTAWDLGKGDFRILMCTKVTMDDFLTAHHEMGHIQYDMAYAAQPFLLRNGANEGFHEAVGEIMSLSAATPKHLKSIGLLSPDFQEDNETEINFLLKQALTIVGTLPFTYMLEKWRWMVFKGEIPKDQWMKKWWEMKREIVGVVEPVPHDETYCDPASLFHVSNDYSFIRYYTRTLYQFQFQEALCQAAKHEGPLHKCDISNSTEAGQKLFNMLRLGKSEPWTLALENVVGAKNMNVRPLLNYFEPLFTWLKDQNKNSFVGWSTDWSPYA
B3: S19P/N33S/H34V/F40L/N49D/L100P ACE2(614), Aga2p-GFP construct Y375, displayed on yeast (designed binder)
chain: QPTIEEQAKTFLDKFSVEAEDLLYQSSLASWDYNTNITEENVQNMNNAGDKWSAFLKEQSTLAQMYPLQEIQNLTVKLQLQAPQQNGSSVLSEDKSKRLNTILNTMSTIYSTGKVCNPDNPQECLLLEPGLNEIMANSLDYNERLWAWESWRSEVGKQLRPLYEEYVVLKNEMARANHYEDYGDYWRGDYEVNGVDGYDYSRGQLIEDVEHTFEEIKPLYEHLHAYVRAKLMNAYPSYISPIGCLPAHLLGDMWGRFWTNLYSLTVPFGQKPNIDVTDAMVDQAWDAQRIFKEAEKFFVSVGLPNMTQGFWENSMLTDPGNVQKAVCHPTAWDLGKGDFRILMCTKVTMDDFLTAHHEMGHIQYDMAYAAQPFLLRNGANEGFHEAVGEIMSLSAATPKHLKSIGLLSPDFQEDNETEINFLLKQALTIVGTLPFTYMLEKWRWMVFKGEIPKDQWMKKWWEMKREIVGVVEPVPHDETYCDPASLFHVSNDYSFIRYYTRTLYQFQFQEALCQAAKHEGPLHKCDISNSTEAGQKLFNMLRLGKSEPWTLALENVVGAKNMNVRPLLNYFEPLFTWLKDQNKNSFVGWSTDWSPYA
B4: S19P/Q42L/L79T/N90Q ACE2(614), Aga2p-GFP construct Y355, displayed on yeast (designed binder)
chain: QPTIEEQAKTFLDKFNHEAEDLFYLSSLASWNYNTNITEENVQNMNNAGDKWSAFLKEQSTTAQMYPLQEIQQLTVKLQLQALQQNGSSVLSEDKSKRLNTILNTMSTIYSTGKVCNPDNPQECLLLEPGLNEIMANSLDYNERLWAWESWRSEVGKQLRPLYEEYVVLKNEMARANHYEDYGDYWRGDYEVNGVDGYDYSRGQLIEDVEHTFEEIKPLYEHLHAYVRAKLMNAYPSYISPIGCLPAHLLGDMWGRFWTNLYSLTVPFGQKPNIDVTDAMVDQAWDAQRIFKEAEKFFVSVGLPNMTQGFWENSMLTDPGNVQKAVCHPTAWDLGKGDFRILMCTKVTMDDFLTAHHEMGHIQYDMAYAAQPFLLRNGANEGFHEAVGEIMSLSAATPKHLKSIGLLSPDFQEDNETEINFLLKQALTIVGTLPFTYMLEKWRWMVFKGEIPKDQWMKKWWEMKREIVGVVEPVPHDETYCDPASLFHVSNDYSFIRYYTRTLYQFQFQEALCQAAKHEGPLHKCDISNSTEAGQKLFNMLRLGKSEPWTLALENVVGAKNMNVRPLLNYFEPLFTWLKDQNKNSFVGWSTDWSPYA
B5: K31Y/W69V/L79T/L91P ACE2(614), Aga2p-GFP construct Y311, displayed on yeast (designed binder)
chain: QSTIEEQAKTFLDYFNHEAEDLFYQSSLASWNYNTNITEENVQNMNNAGDKVSAFLKEQSTTAQMYPLQEIQNPTVKLQLQALQQNGSSVLSEDKSKRLNTILNTMSTIYSTGKVCNPDNPQECLLLEPGLNEIMANSLDYNERLWAWESWRSEVGKQLRPLYEEYVVLKNEMARANHYEDYGDYWRGDYEVNGVDGYDYSRGQLIEDVEHTFEEIKPLYEHLHAYVRAKLMNAYPSYISPIGCLPAHLLGDMWGRFWTNLYSLTVPFGQKPNIDVTDAMVDQAWDAQRIFKEAEKFFVSVGLPNMTQGFWENSMLTDPGNVQKAVCHPTAWDLGKGDFRILMCTKVTMDDFLTAHHEMGHIQYDMAYAAQPFLLRNGANEGFHEAVGEIMSLSAATPKHLKSIGLLSPDFQEDNETEINFLLKQALTIVGTLPFTYMLEKWRWMVFKGEIPKDQWMKKWWEMKREIVGVVEPVPHDETYCDPASLFHVSNDYSFIRYYTRTLYQFQFQEALCQAAKHEGPLHKCDISNSTEAGQKLFNMLRLGKSEPWTLALENVVGAKNMNVRPLLNYFEPLFTWLKDQNKNSFVGWSTDWSPYA

This test addresses SARS-CoV-2 spike RBD monomer (328-533), 8XHis tag, AviTag, biotinylated (SARS-CoV-2). Nature of the test: flow cytometry on cells. The following applies: one partner purified. In general terms: In flow cytometry, cells or beads pass a laser one at a time.
The molecule B1 registered a Kd of 0.45 nM.
Molecule B2 returned a Kd of 1.71 nM.
The figure for B3 is 0.61 nM; for B4 it is 0.94 nM; for B5 it is 0.64 nM.
